Laboratory results reported in patent publication US20040086988.

What was measured:
[1] = tested on: D-fluorogenic substrate 2-aminobenzoyl-Thr-Ile-Nle-Phe(p-NO2)-Gln-Arg.amide
[2] = tested on: L-isomer of the substrate Ac-Thr-Ile-Nle-Nle-Gln-Arg.amide
[3] = tested on: D-isomer of the substrate Ac-Thr-Ile-Nle-Nle-Gln-Arg.amide
[4] = tested on: L-fluorogenic substrate 2-aminobenzoyl-Thr-Ile-Nle-Phe(p-NO2)-Gln-Arg.amide

Row | Substance | cleavage of the chiral fluorogenic substrate (fluorogenic assay, corresponding chiral substrate) [1] | cleavage of hexapeptide substrate (RP HPLC, products identified by ion spray MS) [2] | cleavage of hexapeptide substrate (RP HPLC, products identified by ion spray MS) [3] | cleavage of fluorogenic substrate (increase in fluorescence) [4] | cleavage of fluorogenic substrate (increase in fluorescence) [1] | cleavage of the chiral fluorogenic substrate (fluorogenic assay, corresponding chiral substrate) [4]
1 | D-[Aba^67.95(CO-S)^51-52]2 HIV-1 PR | the cleavage of chiral fluorogenic substrates by the D- and L-HIV-1 PR analogues | is inactive on the L-substrate | The D-enzyme cleaves only the D-substrate | – | – | –
2 | D-[Aba^67.95.167.195]HIV-1 protease (HIV-1 PR) | – | – | – | the D-enzyme cleaved only the corresponding D-substrate (L-substrate not cleaved) | the D-enzyme cleaved only the corresponding D-substrate | –
3 | L-[Aba^67.95(CO-S)^51-52]2 HIV-1 PR | – | the L-enzyme shows full activity towards the L-substrate | is inactive towards the D-substrate | – | – | the cleavage of chiral fluorogenic substrates by the D- and L-HIV-1 PR analogues
4 | L-[Aba^67.95.167.195]HIV-1 protease (HIV-1 PR) | – | – | – | the L-enzyme cleaved only the L-substrate | the L-enzyme cleaved only the L-substrate (D-substrate not cleaved) | –
